Results as given in EP2158221B1 (MacroGenics, Inc., dated 2018).

Columns and labels:
[1] = biological target: T1, sCD32B-Ig (human, UniProt P31994 43-217); assay: sandwich ELISA, CD32B coat, HRP-CD16 probe
T1 construct: extracellular domain; also called CD32B (plate coat of the sandwich ELISA); not shown: Ig part not described
T1 sequence (looked up): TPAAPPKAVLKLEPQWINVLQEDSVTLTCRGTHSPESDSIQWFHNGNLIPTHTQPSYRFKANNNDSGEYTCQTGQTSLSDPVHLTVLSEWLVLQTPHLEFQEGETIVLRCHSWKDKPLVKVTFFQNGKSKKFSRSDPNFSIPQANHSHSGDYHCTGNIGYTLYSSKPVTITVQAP

[2] = biological target: T2, soluble CD16A (sCD16A) (human, UniProt P08637 17-208); assay: sandwich ELISA, CD32B coat, HRP-CD16 probe
T2 construct: extracellular domain; also called sCD16A-Biotin; HRP conjugated sCD16A
T2 sequence (P08637 17-208): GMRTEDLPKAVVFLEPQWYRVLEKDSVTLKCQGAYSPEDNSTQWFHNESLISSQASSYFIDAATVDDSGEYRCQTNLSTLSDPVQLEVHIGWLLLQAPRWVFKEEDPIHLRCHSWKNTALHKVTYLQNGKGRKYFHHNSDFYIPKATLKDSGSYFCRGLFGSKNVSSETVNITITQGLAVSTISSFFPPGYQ

B1: diabody of constructs 9 and 1 (pMGX0719 + pMGX0669) (bispecific antibody, human IgG1)
chain 1: not shown
chain 2: EIVLTQSPDFQSVTPKEKVTFTCRTSQSIGTNIHWYQQKPDQSPKLLIKEVSESISGVPSRFSGSGSGTDFTLTINSLEAEDAATYYCQQSNTWPFTFGGGTKVEIKGGGSGGGGQVTLRESGPALVKPTQTLTLTCTFSGFSLSTSGMGVGWIRQPPGKALEWLAHIWWDDDKRYNPALKSRLTISKDTSKNQVVLTMTNMDPVDTATYYCAQINPAWFAYWGQGTLVTVSSLGGC
notes: hinge/Fc at the N-terminus of the heavier chain; about 150 kDa species on Western blot; also called constructs 1 and 9; constructs 9+1
binding result [1]: binds | binding result [2]: binds

B2: diabody of constructs 10 and 1 (pMGX0718 + pMGX0669) (bispecific antibody)
chain 1: not shown
chain 2: EIVLTQSPDFQSVTPKEKVTFTCRTSQSIGTNIHWYQQKPDQSPKLLIKEVSESISGVPSRFSGSGSGTDFTLTINSLEAEDAATYYCQQSNTWPFTFGGGTKVEIKGGGSGGGGQVTLRESGPALVKPTQTLTLTCTFSGFSLSTSGMGVGWIRQPPGKALEWLAHIWWDDDKRYNPALKSRLTISKDTSKNQVVLTMTNMDPVDTATYYCAQINPAWFAYWGQGTLVTVSSLGGC
notes: Fc at the N-terminus of the heavier chain; at least two species of about 75 and 100 kDa on Western blot; also called constructs 1 and 10; constructs 10+1; copies: 2 + 2
binding result [1]: binds | binding result [2]: binds
